Data published in US20250306040A1 (UNIVERSITY OF KENTUCKY RESEARCH FOUNDATION, published 2025).
No end group written: not given here.

B1: rat amylin (peptide, UniProt P12969 38-74, looked up)
peptide: KCNTATCATQRLANFLVRSSNNLGPVLPPTNVGSNTY
notes: also called rodent amylin; non-amyloidogenic rat amylin
B2: human amylin synthetic peptide (AS-60254-1, Anaspec) (peptide)
peptide: KCNTATCATQRLANFLVHSSNNFGAILSSTNVGSNTY
modifications: ends and bridges not checked; cysteine pairing not given here
notes: The same id is used for human amylin in human brain sections and in HIP rat pancreas; also called islet amyloid polypeptide; IAPP

Tests used:
[1] = biological target: T1, Aβ40 synthetic peptide (AS-24235, Anaspec) (human, UniProt P05067 672-711); test: amylin-Aβ sandwich ELISA on co-incubated peptides
T1 construct: domain: Aβ40; also called human Aβ40

[2] = biological target: T1, Aβ40 synthetic peptide (AS-24235, …); test: amylin-Aβ sandwich ELISA on co-incubated peptides, human amylin against rat amylin
Experimental: The reaction was stopped by adding 50 μL of stop solution (N600, Thermo Scientific) after developing the signals, the plate was read at 450 nm in a spectrophotometer. Amylin-Aβ concentrations were calculated by generating a graph between relative optical density (O.D.) 450 of standards vs standard concentrations, after subtracting the optical density of standard blank and sample blank from the optical density of standards and samples respectively.
Amylin-Aβ aggregates were prepared using the procedure described by O'Nuallain et al. Briefly, 30 μM human amylin synthetic peptide (AS-60254-1, Anaspec) was incubated in PBSA (PBS+0.05% sodium azide) in a water bath at 37° C. for 5 hrs. Aβ₄₀ synthetic peptide (16.2 μM) (AS-24235, Anaspec) was preincubated at 37° C. for 2 hrs. […]
Specificity of amylin-Aβ sandwich ELISA was confirmed using a solution phase amylin-Aβ aggregation assay described in O'Nuallain et al. Synthetic human amylin and Aβ₄₀ peptides were incubated for promoting the amylin-Aβ aggregation and subjected to the amylin-Aβ sandwich ELISA. […] A robust amylin-Aβ immuno-reactivity signal was detected in co-aggregated amylin-Aβ solution, but not in the homogenous amylin and Aβ solutions (FIG. 2A). The aggregated amylin-Aβ solution was assayed for biochemical characteristics of amyloid by measuring the Thioflavin-T (Th-T) fluorescence signal intensity. […]

[3] = biological target: T1, Aβ40 synthetic peptide (AS-24235, …); test: time course (0 to 24 hours) of sandwich ELISA signal of human amylin incubated with Aβ40, in parallel with Th-T fluorescence

T1 sequence (P05067 672-711 limits assumed): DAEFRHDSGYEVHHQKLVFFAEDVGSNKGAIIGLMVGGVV

Binder | binding result [1] | fold amylin-Aβ ELISA signal intensity against rat amylin-Aβ co-aggregation [2] | fold increase of signal intensity from the baseline [3]
B1 | binds | – | –
B2 | – | ~7 fold | 3 fold
